Data as given in patent EP3211087A1 (National University Corporation Nagoya University, dated 2017).

B1: Cavin-2 (other, human, UniProt O95810 2-425, looked up)
chain: GEDAAQAEKFQHPGSDMRQEKPSSPSPMPSSTPSPSLNLGNTEEAIRDNSQVNAVTVLTLLDKLVNMLDAVQENQHKMEQRQISLEGSVKGIQNDLTKLSKYQASTSNTVSKLLEKSRKVSAHTRAVKERMDRQCAQVKRLENNHAQLLRRNHFKVLIFQEENEIPASVFVKQPVSGAVEGKEELPDENKSLEETLHTVDLSSDDDLPHDEEALEDSAEEKVEESRAEKIKRSSLKKVDSLKKAFSRQNIEKKMNKLGTKIVSVERREKIKKSLTSNHQKISSGKSSPFKVSPLTFGRKKVREGESHAENETKSEDLPSSEQMPNDQEEESFAEGHSEASLASALVEGEIAEEAAEKATSRGSNSGMDSNIDLTIVEDEEEESVALEQAQKVRYEGSYALTSEEAERSDGDPVQPAVLQVHQTS
notes: whole, on cells; Detected with anti-Cavin-2 (Abcam) in IP-WB of cell extracts
B2: human Cavin-1 (other, UniProt Q6NZI2 1-390, looked up)
chain: MEDPTLYIVERPLPGYPDAEAPEPSSAGAQAAEEPSGAGSEELIKSDQVNGVLVLSLLDKIIGAVDQIQLTQAQLEERQAEMEGAVQSIQGELSKLGKAHATTSNTVSKLLEKVRKVSVNVKTVRGSLERQAGQIKKLEVNEAELLRRRNFKVMIYQDEVKLPAKLSISKSLKESEALPEKEGEELGEGERPEEDAAALELSSDEAVEVEEVIEESRAERIKRSGLRRVDDFKKAFSKEKMEKTKVRTRENLEKTRLKTKENLEKTRHTLEKRMNKLGTRLVPAERREKLKTSRDKLRKSFTPDHVVYARSKTAVYKVPPFTFHVKKIREGQVEVLKATEMVEVGADDDEGGAERGEAGDLRRGSSPDVHALLEITEESDAVLVDKSDSD
notes: whole, on cells; Endogenous protein in cell extracts, or full-length cDNA expressed from pCMV-puro in COS-7 cells for IP-WB; also called Cavin-1-WT; pCMVpuro-Cavin-1
B3: human Caveolin 1 (CAV1) (other, UniProt Q03135 2-178, looked up)
chain: SGGKYVDSEGHLYTVPIREQGNIYKPNNKAMADELSEKQVYDAHTKEIDLVNRDPKHLNDDVVKIDFEDVIAEPEGTHSFDGIWKASFTTFTVTKYWFYRLLSALFGIPMALIWGIYFAILSFLHIWAVVPCIKSFLIEIQCISRVYSIYVHTVCDPLFEAVGKIFSNVRINLQKEI
notes: whole, on cells; Endogenous protein in cell extracts, or full-length cDNA expressed from pCMV-puro in COS-7 cells for IP-WB; also called CAV1-WT; pCMVpuro-CAV1

Assays:
[1] = target: T1, human ROR1 (receptor tyrosine kinase-like orphan receptor 1) (human, UniProt Q01973 30-937); assay: IP-WB of octyl glucoside cell extracts, NCI-H1975 and SK-LU-1
T1 construct: whole, on cells; also called ROR1-WT; endogenous ROR1
T1 sequence (Q01973 30-937): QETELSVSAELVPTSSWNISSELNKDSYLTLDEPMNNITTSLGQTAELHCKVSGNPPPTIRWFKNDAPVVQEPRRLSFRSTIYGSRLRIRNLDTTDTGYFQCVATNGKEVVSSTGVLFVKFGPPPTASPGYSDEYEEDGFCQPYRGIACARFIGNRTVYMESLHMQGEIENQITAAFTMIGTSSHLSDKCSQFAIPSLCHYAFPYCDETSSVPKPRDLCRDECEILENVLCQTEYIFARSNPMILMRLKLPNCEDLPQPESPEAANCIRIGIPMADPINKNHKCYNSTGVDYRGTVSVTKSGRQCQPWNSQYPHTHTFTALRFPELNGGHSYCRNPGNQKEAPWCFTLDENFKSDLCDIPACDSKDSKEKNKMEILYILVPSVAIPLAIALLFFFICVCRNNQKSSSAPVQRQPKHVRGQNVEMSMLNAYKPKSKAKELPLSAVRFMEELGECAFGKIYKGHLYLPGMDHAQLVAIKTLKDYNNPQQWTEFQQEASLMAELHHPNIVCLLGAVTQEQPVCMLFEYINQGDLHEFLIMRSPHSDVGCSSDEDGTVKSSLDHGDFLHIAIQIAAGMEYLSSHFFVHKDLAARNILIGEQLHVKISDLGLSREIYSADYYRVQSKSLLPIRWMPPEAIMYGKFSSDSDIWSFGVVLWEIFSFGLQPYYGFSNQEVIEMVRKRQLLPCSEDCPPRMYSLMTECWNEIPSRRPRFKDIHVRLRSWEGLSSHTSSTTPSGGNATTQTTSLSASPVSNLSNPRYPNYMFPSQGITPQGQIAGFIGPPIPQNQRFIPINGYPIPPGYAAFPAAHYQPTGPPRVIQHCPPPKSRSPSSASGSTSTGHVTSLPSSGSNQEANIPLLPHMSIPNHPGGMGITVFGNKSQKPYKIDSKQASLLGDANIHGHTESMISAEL

human Cavin-1 = target: B2; assay: legend of FIG. 4(6): IP-WB
[2] = target: T1, human ROR1 (receptor tyrosine …); assay: legend of FIGS. 4(3) and (4): IP-WB, NCI-H1975 and SK-LU-1

| binding result [1] | binding result (human Cavin-1) | binding result [2] | Binder |
| --- | --- | --- | --- |
| no binding |  |  | B1 |
| binds |  |  | B2 |
|  | binds | binds | B3 |
